9 substances from paper PMC5861437 can be followed below.

Assay [1] deals with H.CglI H282A + H290A (H/H motif double mutant) (Corynebacterium glutamicum). The assay is described as follows: SEC.
Assay [2] addresses H.CglI R379A (Motif V mutant) (Corynebacterium glutamicum). In words: SEC.
In assay [3] the target is H.CglI H282A (H/H motif mutant) (Corynebacterium glutamicum). In words: SEC.
The target in assay [4] is H.CglI H290A (H/H motif mutant) (Corynebacterium glutamicum). The assay is described as follows: SEC. For orientation: In gel filtration, larger molecules generally elute earlier.
For assay [5], the target named is H.CglI ΔL (a deletion of the residues 165–172), Loop 163–172 mutant (Corynebacterium glutamicum). The assay is described as follows: SEC.
In assay [6] the target is H.CglI L1 (V169A), Loop 163–172 mutant (Corynebacterium glutamicum). In words: SEC.
Assay [7] deals with H.CglI R408A (Motif VI mutant) (Corynebacterium glutamicum). In words: SEC.
For assay [8], the target named is H.CglI Q405A (Motif VI mutant) (Corynebacterium glutamicum). In words: SEC.
In assay [9] the target is H-subunit of the restriction endonuclease CglI (H.CglI), wild type (Corynebacterium glutamicum). The assay is described as follows: SEC + other: SAXS.

Consider “H.CglI H282A + H290A (H/H motif double mutant) (natural protein)”, for which the stoichiometry N in assay [1] was 2.

On to “H.CglI R379A (Motif V mutant) (natural protein)”, for which the stoichiometry N in assay [2] was determined as 2.

As to “H.CglI H282A (H/H motif mutant) (natural protein)”, the stoichiometry N in assay [3] was determined as 2.

In [4], “H.CglI H290A (H/H motif mutant) (natural protein)” yielded a stoichiometry N of 2.

“H.CglI ΔL (a deletion of the residues 165–172), Loop 163–172 mutant (natural protein)” displayed a stoichiometry N in assay [5] of 2. With “H.CglI L1 (V169A), Loop 163–172 mutant (natural protein)”, the stoichiometry N in [6] stood at 2. For “H.CglI R408A (Motif VI mutant) (natural protein)”, the stoichiometry N in assay [7] is 2. With “H.CglI Q405A (Motif VI mutant) (natural protein)”, the stoichiometry N in assay [8] was found to be 2.

Consider “H-subunit of the restriction endonuclease CglI (H.CglI), wild type (natural protein)”, for which, in assay [9], the stoichiometry N was determined as 2.

One may read the stoichiometry N as the number of molecules, sites or subunits per partner or assembly.
